Source: the RNAGym collection of RNA variant scans (doi:10.1073/pnas.2313332121)
Fewer inactive variants are shown than the library holds.

B1: TPR 5TU (parent)
chain: GGAUCUUCUCGAUCUAACAAAAAAGACAAAUCUGCCACAAAGCUUGAGAGCAUCUUCGGAUGCAGAGGCGGCAGCCUUCGGUGGCGCGAUAGCGCCAACGUUCUCAACUAUGACACGCAAAACGCGUGCUCCGUUGAAUGGAGUUUAUCAUG

Variants of: B1
Assay: polymerase ribozyme fitness, log enrichment relative to wild type (log ratio); higher = more active; in vitro selection for triplet polymerase activity
Method in brief: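 A heterodimeric triplet polymerase ribozyme had each of its subunits mutagenized by PCR into a library, which was transcribed. One round of in vitro selection, done in triplicate, annealed each library with a biotinylated primer, its partner subunit and triplets, then incubated it frozen at −7 °C before gel excision of extended constructs, streptavidin-bead capture and RT-PCR. Fitness is the logarithm of genotype enrichment relative to wild-type enrichment, based on Illumina sequencing of inputs and outputs and inverse-variance-weighted replicate averages. A base-2 logarithm is used, and genotypes were kept only with ≥10 input reads and ≥1 read per output.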

Row | Variant | polymerase ribozyme fitness (log ratio)
1 | GGAUCUUCUCGAUCUAACAAAAAAGACAAAUCUGCCACAAAGCUUGAGAGCAUCUUUGGAUGCAGAGGCGGCAGCCUUCGGUCGCGCGAUAGCGCCAACGUUCUCAACUAUGACACGCAAAACGCGUGCUCCGUUGAAUGGAGUUUAUCAUG | -0.999
2 | GGAUCUUCUCGAUCUAACAAAAAAGACAAAUCUGCCACAAAGCUUGAGAGCAUCUUUGGAUGCAGAGGCGGCAGCCUUCGGUUGCGCGAUAGCGCCAACGUUCUCAACUAUGACACGCAAAACGCGUGCUCCGUUGGAUGGAGUUUAUCAUG | -1.92
3 | GGAUCUUCUCGAUCUAACAAAAAAGACAAAUCUGCCACAAAGCUUGAGAGCAUCUUUGGAUGCAGAGGCGGCAGCCUUCGGUGGCGCGAUAGCGCCAACGUAUUCAACUAUGACACGCAAAACGCGUGCUCCGUUGAAUGGAGUUUAUCAUG | -1.15
4 | GGAUCUUCUCGAUCUAACAAAAAAGACAAAUCUGCCACAAAGCUUGAGAGCAUCUUUGGAUGCAGAGGCGGCAGCCUUCGGUGGCGCGAUAGCGCCAACGUUCUCAACUAUGACAGGCAAAACCCGUGCUCCGUUGAAUGCAGUGUAUCAUG | ≤ -4.2
5 | GGAUCUUCUCGAUCUAACAAAAAAGACAAAUCUGCCACAAAGCUUGAGAGCAUCUUUGGAUGCAGAGGCGGCAGCCUUCGGUGGCGCGAUACCGCCCACGUUCUCAACUAUGACACGCAAAACGCGUGCUCCGUUGAAUGGAGUAUAUCAUG | 0.369
6 | GGAUCUUCUCGAUCUAACAAAAAAGACAAAUCUGCCACAAAGCUUGAGAGCAUCUUUGGAUGCAGAGGCGGCAGCCUUCGGUGGCGCGAUAGCGCCAACGUUCUCAACUAUGACACGCAAAACGCGCGCUCCGUUGAAUGGAGUUUAUCAUG | -2.13
7 | GGAUCUUCUCGAUCUAACAAAAAAGACAAAUCUGCCACAAAGCUUGAGAGCAUCUUUGGAUGCAGAGGCGGCAGCCUUCGGUGACGCGAUAGCGCCAUCGUUCUCAACUAUGACACGCAAAACGCGUGUUCCGUUGAAUGGAGUUUUUCAUG | -1.13
8 | GGAUCUUCUCGAUCUAACAAAAAAGACAAAUCUGCCACAAAGCUUGAGAGCAUCUUUGGAUGCAGAGGCGGCAGCCUUCGGAGGCGCGAUAGAGCCAACGUUCUCAACUAUUACAUGCAAAACGCGUGCUCCGUUGAAUGGAGUUUAUCAUG | ≤ -4.2
9 | GGAUCUUCUCGAUCUAACAAAAAAGACAAAUCUGCCACAAAGCUUGAGAGCAUCUUUCGUUGCAGAGGCGGCAGCCUUCGGUGGCGCAAUAGCGCCAAAGUUCUCAACUAUGACACGCAAAACGCGUGCUCCGUUGAAUGGAGUUUAUCAUG | ≤ -4.2
10 | GGAUCUUCUCGAUCUAACAAAAAAGACAAAUCUGCCACAAAGCUUGAGAGCAUCUUUGAAUGCAGAGGCGGCAGCCUUCGGUGGUGCGAUAGCGGCAACGUUCUCAACUAUGACACGCAAAACGCGUGCUCCGUUGAAUGGAGUUUAUCAUG | -2.02
11 | GGAUCUUCUCGAUCUAACAAAAAAGACAAAUCUGCCACAAAGCUUGAGAGCAUCUUUGCAUGCAGAGGCGGCAGCCUUCGGUGGCGCGAUAGCGGCAACGUUCUCAAUUAUGACACGCAAAACGCGUGCUCCGUUGAAUGGAGUUUAACAUG | ≤ -4.2
12 | GGAUCUUCUCGAUCUAACAAAAAAGACAAAUCUGCCACAAAGCUUGAGAGCAUCUUUGGAUGCAGAGGCUGCAGCCUUAGGUGGCGCGAUAGGGCCAACGUUCUGAACUAUGACACGCAAAACGCGUGCUCCGUUGAAUGGACUUUAUCAUG | ≤ -4.2
13 | GGAUCUUCUCGAUCUAACAAAAAAGACAAAUCUGCCACAAAGCUUGAGAGCAUCUUUGAAUGCAGACGCGGCAGCCUUCGGUGGCGCGAUAGCCCCAACGUUCUCAACUAUGACACGCAAAACGCGUGCUCCGUUGAAUGGAGUUUAUCAUG | ≤ -4.2
14 | GGAUCUUCUCGAUCUAACAAAAAAGACAAAUCUGCCACAAAGCUUGAGAGCAUCUUUGGAUGCAGAGGCGGCAGCCUUCGGUGCCGCGAUAGCGACAACGUUCUCAACUAUGACAGGCAAAACGCGUGCUCCGUUUACUGGAGUUUAUCAUG | -4.17
15 | GGAUCUUCUCGAUCUAACAAAAAAGACAAAUCUGCCACAAAGCUUGAGAGCAUCUUUGGAUGCAGAGACGGUAGCCUUCGGUGGCGCGAUAACGCCAACGUUCUCAACUAUGACACGCAAAACGCGUGCUCCGUUGAAUGGAGUUUAUCAUG | ≤ -4.2
16 | GGAUCUUCUCGAUCUAACAAAAAAGACAAAUCUGCCACAAAGCUUGAGAGCAUCUUUGGAAGCAGAGGCGGCAGCCUUCGGUGGCGCGUUAGCGCCAACGUUCUCGACUAUGACACGCAAAGCGCGUGCUCCGUUGAAUGGAGUUUAUCGUG | -3.73
17 | GGAUCUUCUCGAUCUAACAAAAAAGACAAAUCUGCCACAAAGCUUGAGAGCAUCUUUGAAUGCAGAGGCGGCAGCCUUCGGUCUAGCGAUAGCGCCAACGGUCUCAACUAUGACACGCAAAACGCAUGCUCCGUUGAAUGGCGUUUAUCAUG | ≤ -4.2
18 | GGAUCUUCUCGAUCUAACAAAAAAGACAAAUCUGCCACAAAGCUUGAGAGCAUCUUUGGAUGCAGAGGCGGCAGCCUUCGGUGGCGCGAUAGCGCCAACGUUCUCAACUAUGACACGCAAAACGCGUUCUCCGUUGAAUGGAGUUUAUCAUG | -3.2
19 | GGAUCUUCUCGAUCUAACAAAAAAGACAAAUCUGCCACAAAGCUUGAGAGCAUCUUUGGAUGCAGAGGCGGCAGCCUUCGGUGGCGCUAUAGCGCCAACAUUCUCACCUAUGACACGCAAAACGCGUGCUCCGUUGAAUGGAGUUUAUCAUG | ≤ -4.2

Row | Variant | polymerase ribozyme fitness (log ratio)
20 | GGAUCUUCUCGAUCUAACAAAAAAGACAAAUCUGCCACAAAGCUUGAGAGCAUCUUUGGAUGCAGAGGCGGCAGCCUUCGGUAGCGCAGUAGCGCCAACGUUCUCAACUAUGACACGCAAAACGCGUGCUCCGGUGAAUGGAGUUUAUCAUG | ≤ -4.2
21 | GGAUCUUCUCGAUCUAACAAAAAAGACAAAUCUGCCACAAAGCUUGAGAGCAUCUUUGGAUGCAGAGGCGGCAGCCUUCGGUGACGCGAUAGCGCCAACGUUCUCAACUAUGACACGCAAAACGCGUGCUCCGUUGAAUGGAGUUUAUCAUG | -0.782
22 | GGAUCUUCUCGAUCUAACAAAAAAGACAAAUCUGCCACAAAGCUUGAGAGCAUCUUUGGAAGCAGAGGCGGCAGCCUUCGCUGGCGCGAUAGCGCCAACGUUCUCAUCUAUGACACGCAAAACGCGUGCUCCGUUGAAUGGAGUUUAUCAUG | ≤ -4.2
23 | GGAUCUUCUCGAUCUAACAAAAAAGACAAAUCUGCCACAAAGCUUGAGAGCAUCUUUGGAUGCAGAGGCGGCAGCCUACAGUGGCGCGAUAGCGCCAACGUUCUCAACUAUGACACGCAAAACGCGUGCUCCGUUGAGGGGAGUUUAUCAUG | ≤ -4.2
24 | GGAUCUUCUCGAUCUAACAAAAAAGACAAAUCUGCCACAAAGCUUGAGAGCAUCUUUGGAUGCAGAGGCGGCAGCCUUCGGUGGCGCGAUAGCGCCAACGUUCUCAACUAUGACACGCAAAACGCGUGCUCCGUUGAAUCGAGUUUAUCAUG | -3.55
25 | GGAUCUUCUCGAUCUAACAAAAAAGACAAAUCUGCCACAAAGCUUGAGAGCAUCUUUUGAUGCAGAGGCGGCAGCCUUCGGUGGCGCGAUAGCGCCAACGUUCUCAACUAUGACACGCAAAACGCGUGCUCCGUUGAAUGGAGUUUAUCAUG | 0.297
26 | GGAUCUUCUCGAUCUAACAAAAAAGACAAAUCUGCCACAAAGCUUGAGAGCAUCUUUGAAUGCAGAGGCGGCAGCCUUCGGUGGCACGAUAGCGCCAACGUUCUCAACUAUGACACGCAAAACGCGUGCUCCGAUGAAUGGAGUUUAACAUG | ≤ -4.2
27 | GGAUCUUCUCGAUCUAACAAAAAAGACAAAUCUGCCACAAAGCUUGAGAGCAUCUUUGGAUGCAGAGGCGGCAGCCUUCGGUGGCUCGAUAGCGCCAACGUUCUCAACUAUGACACGCAAAACGCGUGCUCCGUUGAAUGGAGUUUAUCAUG | -1.78
28 | GGAUCUUCUCGAUCUAACAAAAAAGACAAAUCUGCCACAAAGCUUGAGAGCAUCUUUGGAUGCAGAGGCGGCAGCCUUCGGUGGCACGAUAGCGCCAACGUUCUCAACUAUGACACGCAAAACGCGUGCUCCGUUGAAUGGAGUUUAUCAUG | -1.16
29 | GGAUCUUCUCGAUCUAACAAAAAAGACAAAUCUGCCACAAAGCUUGAGAGCAUCUUUGGAGGCAGAGGCGGCAGCCUUCGGUGGCACGUUAGCGCCAACGUUCUCAACUAUGACACGCAAAACGCGUGCUCCGUUGAAUGGAGUUUAUCAUG | -3.74
30 | GGAUCUUCUCGAUCUAACAAAAAAGACAAAUCUGCCACAAAGCUUGAGAGCAUCUUUGGAUGCAGAGGCGGCAGCCUUCGGUGGCGCGAUAGCGCCAACGUUCUCAACUAUGACACGCAAAACGCGUGCGUCGUUGAAUGGAGUUUAUCAUG | -4.19
31 | GGAUCUUCUCGAUCUAACAAAAAAGACAAAUCUGCCACAAAGCUUGAGAGCAUCUUUGGAUGCAGAGGCGGCAGCCUUCGGUGGCGCGAUAGCGCCAACGUUCUCAACUAUGACACGCAAAACGCGUGCUCCGUGGAAUGGAGUUUAUCAUG | -4.05
32 | GGAUCUUCUCGAUCUAACAAAAAAGACAAAUCUGCCACAAAGCUUGAGAGCAUCUUUGGAUGCAGAGGCAGCAGCCUUCGGUCGCGCGAUAGCGCCAACGUUCUCAACUAUGACACGCAAAACGCGUGCUCCGUUGAAGGGAGUUUAUCAUG | ≤ -4.2
33 | GGAUCUUCUCGAUCUAACAAAAAAGACAAAUCUGCCACAAAGCUUGAGAGCAUCUUUCGAUGCAGAGGCGGCAGCCUUCGGUGGCGCGAUAGCGCCAACGUUCUCAACUAUGACACGCAAAACGCGUGCUCCGUUGAAUGGCGUUUAUCAUG | 0.768
34 | GGAUCUUCUCGAUCUAACAAAAAAGACAAAUCUGCCACAAAGCUUGAGAGCAUCUUUGGAUGCAGAGGCGGCAGCCUUCGGUGGCGCGAUAGCCCCAACGUUCUCAACUAUGACAUGCAAAACGCGUGCUCCGUUGAAUGGAGUUUAUCAUG | 0.445
35 | GGAUCUUCUCGAUCUAACAAAAAAGACAAAUCUGCCACAAAGCUUGAGAGCAUCUUUGGAUGCAGAGGCGGCAGCCUUCGGUGGCGCGAUAGCGCCAACGUUCUCAACUAUGACACGCAAAACGCCUGCUCCGUUGAAUGGAGUUUAUCAUG | 0.553
36 | GGAUCUUCUCGAUCUAACAAAAAAGACAAAUCUGCCACAAAGCUUGAGAGCAUCUUUGGAUGCAGAGGCGGCAGCCUUCGGUGGCGCGAUAGCUCCAACGUUCUCAACUAUGACACGUAAAACGCGUGCUCCGUUGAAUGGAUUUUAUCAUG | ≤ -4.2
37 | GGAUCUUCUCGAUCUAACAAAAAAGACAAAUCUGCCACAAAGCUUGAGAGCAUCUUUGGAUGCAGAGGCGGCAGCCUUCGGUGGCGCGAUAGCUCCAACGUUCUCAACUAUGACACGCAAAACGCGUGCUCCGUUGAAUGGAGUUUAUCAUG | -0.85
38 | GGAUCUUCUCGAUCUAACAAAAAAGACAAAUCUGCCACAAAGCUUGAGAGCAUCUUUGGAUGCAGAGGCGGCAGCCUUCGGUGGCGCGAUAGCACCAACGUUCUCAACUAUGACACGCAAAACGCGUGCUCCGUUGAAUGGAGUUUAUCAUG | -0.629
